Experimental data as given in patent publication US20050244864A1, “Development and use of fluorescent probes of unbound analytes” (priority 2004, published 2005).

Experiments:
Type in all cases: binding
[1] = Probe fluorescence ratio response to oleate:BSA complex, relative to ADIFAB2 (ΔR/ΔRAD2); settings: fluorescence response (R-Ro) relative to ADIFAB2; oleate
How it was run: (§1)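 Mutant probes were screened against fatty acid:BSA complexes made by adding fatty acid sodium salts at pH 11 to BSA in HEPES, titrated until ADIFAB2 gave ΔR ≈0.4 ([FFAu] 100–1000 nM). Wells held 6 μM BSA; excitation 375 nm, emission 550/457 nm, background-subtracted.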

[2] = Probe fluorescence ratio response to palmitoleate:BSA complex, relative to ADIFAB2 (ΔR/ΔRAD2); settings: fluorescence response (R-Ro) relative to ADIFAB2
[3] = Probe fluorescence ratio response to stearate:BSA complex, relative to ADIFAB2 (ΔR/ΔRAD2); settings: fluorescence response (R-Ro) relative to ADIFAB2
[4] = Probe fluorescence ratio response to linolenate:BSA complex, relative to ADIFAB2 (ΔR/ΔRAD2); settings: fluorescence response (R-Ro) relative to ADIFAB2; linolenate
How it was run: as §1

[5] = Probe fluorescence ratio response to palmitate:BSA complex, relative to ADIFAB2 (ΔR/ΔRAD2); settings: fluorescence response (R-Ro) relative to ADIFAB2; palmitate
How it was run: as §1

[6] = Probe fluorescence ratio response to linoleate:BSA complex, relative to ADIFAB2 (ΔR/ΔRAD2); settings: fluorescence response (R-Ro) relative to ADIFAB2; linoleate
How it was run: as §1

[7] = Probe fluorescence ratio response to arachidonate:BSA complex, relative to ADIFAB2 (ΔR/ΔRAD2); settings: fluorescence response (R-Ro) relative to ADIFAB2; arachidonate
How it was run: as §1

| Molecule | ΔR/ΔRAD2 OA [1] | ΔR/ΔRAD2 POA [2] | ΔR/ΔRAD2 SA [3] | ΔR/ΔRAD2 LNA [4] | ΔR/ΔRAD2 PA [5] | ΔR/ΔRAD2 LA [6] | ΔR/ΔRAD2 AA [7] |
| --- | --- | --- | --- | --- | --- | --- | --- |
| L2P7F4: acrylodan-labeled rI-FABP-L72A mutein: M18 V, G31 V, F55 WT, A73 I (protein, UniProt P02693 2-132, looked up, variant M18V G31V L72A A73I, acrylodan label, acrylodan-labeled rI-FABP-L72A mutein: M18 V, G31 V, F55 WT, A73 I) Fatty acid-binding protein, …: AFDGTWKVDRNENYEKFVEKMGINVVKRKLVAHDNLKLTITQEGNKFTVKESSNFRNIDVVFELGVDFAYSAIDGTELTGTWTMEGNKLVGKFKRVDNGKELIAVREISGNELIQTYTYEGVEAKRIFKKE | 0.6 | 1.3 | 0.3 | 1.5 | 1.3 | 1.1 | 0.8 |
| L2P2E11: acrylodan-labeled rI-FABP-L72A mutein: M18 I, G31 F, F55 WT, A73 WT (protein, UniProt P02693 2-132, looked up, variant M18I G31F L72A, acrylodan label) Fatty acid-binding protein, …: AFDGTWKVDRNENYEKFIEKMGINVVKRKLFAHDNLKLTITQEGNKFTVKESSNFRNIDVVFELGVDFAYSAADGTELTGTWTMEGNKLVGKFKRVDNGKELIAVREISGNELIQTYTYEGVEAKRIFKKE | 1.6 | 2.6 | 0.8 | 2.8 | 2.0 | 2.5 | 1.9 |
| L2P12C5: acrylodan-labeled rI-FABP-L72A mutein: M18 I, G31 I, F55 M, A73 I (protein, UniProt P02693 2-132, looked up, variant M18I G31I F55M L72A A73I, acrylodan label) Fatty acid-binding protein, …: AFDGTWKVDRNENYEKFIEKMGINVVKRKLIAHDNLKLTITQEGNKFTVKESSNMRNIDVVFELGVDFAYSAIDGTELTGTWTMEGNKLVGKFKRVDNGKELIAVREISGNELIQTYTYEGVEAKRIFKKE | 0.8 | 1.9 | 0.4 | 1.7 | 1.5 | 1.5 | 1.3 |
| L2P23G7: acrylodan-labeled rI-FABP-L72A mutein: M18 V, G31 F, F55 L, A73 WT (protein, UniProt P02693 2-132, looked up, variant M18V G31F F55L L72A, acrylodan label, acrylodan-labeled rI-FABP-L72A mutein: M18 V, G31 F, F55 L, A73 WT) Fatty acid-binding protein, …: AFDGTWKVDRNENYEKFVEKMGINVVKRKLFAHDNLKLTITQEGNKFTVKESSNLRNIDVVFELGVDFAYSAADGTELTGTWTMEGNKLVGKFKRVDNGKELIAVREISGNELIQTYTYEGVEAKRIFKKE | 0.6 | 1.4 | 0.4 | 1.2 | 1.0 | 1.0 | 0.9 |
| L2P8A5: acrylodan-labeled rI-FABP-L72A mutein: M18 V, G31 A, F55 W, A73 W (protein, UniProt P02693 2-132, looked up, variant M18V G31A F55W L72A A73W, acrylodan label) Fatty acid-binding protein, …: AFDGTWKVDRNENYEKFVEKMGINVVKRKLAAHDNLKLTITQEGNKFTVKESSNWRNIDVVFELGVDFAYSAWDGTELTGTWTMEGNKLVGKFKRVDNGKELIAVREISGNELIQTYTYEGVEAKRIFKKE | 0.9 | 2.0 | 0.4 | 1.9 | 1.5 | 1.6 | 1.1 |
| L2P8A6: acrylodan-labeled rI-FABP-L72A mutein: M18 I, G31 V, F55 V, A73 V (protein, UniProt P02693 2-132, looked up, variant M18I G31V F55V L72A A73V, acrylodan label) Fatty acid-binding protein, …: AFDGTWKVDRNENYEKFIEKMGINVVKRKLVAHDNLKLTITQEGNKFTVKESSNVRNIDVVFELGVDFAYSAVDGTELTGTWTMEGNKLVGKFKRVDNGKELIAVREISGNELIQTYTYEGVEAKRIFKKE | 0.4 | 1.3 | 0.2 | 1.2 | 1.0 | 0.8 | 0.6 |
| L2P22E6: acrylodan-labeled rI-FABP-L72A mutein: M18 V, G31 A, F55 I, A73 W (protein, UniProt P02693 2-132, looked up, variant M18V G31A F55I L72A A73W, acrylodan label, acrylodan-labeled rI-FABP-L72A mutein: M18 V, G31 A, F55 I, A73 W) Fatty acid-binding protein, …: AFDGTWKVDRNENYEKFVEKMGINVVKRKLAAHDNLKLTITQEGNKFTVKESSNIRNIDVVFELGVDFAYSAWDGTELTGTWTMEGNKLVGKFKRVDNGKELIAVREISGNELIQTYTYEGVEAKRIFKKE | 0.8 | 1.6 | 0.4 | 1.6 | 1.3 | 1.3 | 1.0 |
| L2P17H10: acrylodan-labeled rI-FABP-L72A mutein: M18 G, G31 F, F55 WT, A73 L (protein, UniProt P02693 2-132, looked up, variant M18G G31F L72A A73L, acrylodan label, acrylodan-labeled rI-FABP-L72A mutein: M18 G, G31 F, F55 WT, A73 L) Fatty acid-binding protein, …: AFDGTWKVDRNENYEKFGEKMGINVVKRKLFAHDNLKLTITQEGNKFTVKESSNFRNIDVVFELGVDFAYSALDGTELTGTWTMEGNKLVGKFKRVDNGKELIAVREISGNELIQTYTYEGVEAKRIFKKE | 1.4 | 1.2 | 1.7 | 1.2 | 1.0 | 1.5 | 1.8 |
| L2P21G3: acrylodan-labeled rI-FABP-L72A mutein: M18 I, G31 M, F55 M, A73 WT (protein, UniProt P02693 2-132, looked up, variant M18I G31M F55M L72A, acrylodan label, acrylodan-labeled rI-FABP-L72A mutein: M18 I, G31 M, F55 M, A73 WT) Fatty acid-binding protein, …: AFDGTWKVDRNENYEKFIEKMGINVVKRKLMAHDNLKLTITQEGNKFTVKESSNMRNIDVVFELGVDFAYSAADGTELTGTWTMEGNKLVGKFKRVDNGKELIAVREISGNELIQTYTYEGVEAKRIFKKE | 0.6 | 1.4 | 0.3 | 1.4 | 1.1 | 1.1 | 1.0 |
| L2P11B4: acrylodan-labeled rI-FABP-L72A mutein: M18 V, G31 A, F55 WT, A73 W (protein, UniProt P02693 2-132, looked up, variant M18V G31A L72A A73W, acrylodan label, acrylodan-labeled rI-FABP-L72A mutein: M18 V, G31 A, F55 WT, A73 W) Fatty acid-binding protein, …: AFDGTWKVDRNENYEKFVEKMGINVVKRKLAAHDNLKLTITQEGNKFTVKESSNFRNIDVVFELGVDFAYSAWDGTELTGTWTMEGNKLVGKFKRVDNGKELIAVREISGNELIQTYTYEGVEAKRIFKKE | 1.9 | 3.1 | 0.7 | 2.8 | 2.2 | 2.6 | 1.8 |
| L2P22G6: acrylodan-labeled rI-FABP-L72A mutein: M18 I, G31 Y, F55 WT, A73 G (protein, UniProt P02693 2-132, looked up, variant M18I G31Y L72A A73G, acrylodan label, acrylodan-labeled rI-FABP-L72A mutein: M18 I, G31 Y, F55 WT, A73 G) Fatty acid-binding protein, …: AFDGTWKVDRNENYEKFIEKMGINVVKRKLYAHDNLKLTITQEGNKFTVKESSNFRNIDVVFELGVDFAYSAGDGTELTGTWTMEGNKLVGKFKRVDNGKELIAVREISGNELIQTYTYEGVEAKRIFKKE | 1.6 | 2.6 | 0.9 | 2.7 | 1.9 | 2.6 | 1.8 |
| L2P23A4: acrylodan-labeled rI-FABP-L72A mutein: M18 V, G31 I, F55 L, A73 V (protein, UniProt P02693 2-132, looked up, variant M18V G31I F55L L72A A73V, acrylodan label) Fatty acid-binding protein, …: AFDGTWKVDRNENYEKFVEKMGINVVKRKLIAHDNLKLTITQEGNKFTVKESSNLRNIDVVFELGVDFAYSAVDGTELTGTWTMEGNKLVGKFKRVDNGKELIAVREISGNELIQTYTYEGVEAKRIFKKE | 2.3 | 2.8 | 1.2 | 2.6 | 1.9 | 3.1 | 2.8 |
| L2P18H12: acrylodan-labeled rI-FABP-L72A mutein: M18 I, G31 V, F55 WT, A73 G (protein, UniProt P02693 2-132, looked up, variant M18I G31V L72A A73G, acrylodan label, acrylodan-labeled rI-FABP-L72A mutein: M18 I, G31 V, F55 WT, A73 G) Fatty acid-binding protein, …: AFDGTWKVDRNENYEKFIEKMGINVVKRKLVAHDNLKLTITQEGNKFTVKESSNFRNIDVVFELGVDFAYSAGDGTELTGTWTMEGNKLVGKFKRVDNGKELIAVREISGNELIQTYTYEGVEAKRIFKKE | 1.0 | 2.1 | 0.5 | 1.9 | 1.6 | 1.7 | 1.3 |
